Measurements as given in the Immune Epitope Database (IEDB).

Tests used:
[1] = biological target: HLA-A*31:01; experiment: IEDB peptide-MHC binding, purified MHC/competitive/fluorescence; ≥ and ≤ were set here for values at or beyond the usual limits of such assays; conditions: source organism: Monodelphis domestica
[2] = biological target: HLA-A*25:01; experiment: as above; conditions: source organism: Monodelphis domestica
[3] = biological target: HLA-A*02:01; experiment: as above; conditions: source organism: Monodelphis domestica
[4] = biological target: HLA-B*07:02; experiment: as above; conditions: source organism: Monodelphis domestica
[5] = biological target: HLA-B*58:01; experiment: as above; conditions: source organism: Monodelphis domestica
[6] = biological target: HLA-A*68:02; experiment: as above; conditions: source organism: Monodelphis domestica
[7] = biological target: HLA-B*14:02; experiment: as above; conditions: source organism: Monodelphis domestica
[8] = biological target: HLA-B*44:03; experiment: as above; conditions: source organism: Monodelphis domestica
[9] = biological target: HLA-A*03:01; experiment: as above; conditions: source organism: Monodelphis domestica
[10] = biological target: HLA-B*37:01; experiment: as above; conditions: source organism: Monodelphis domestica
[11] = biological target: HLA-A*01:01; experiment: as above; conditions: source organism: Monodelphis domestica
[12] = biological target: HLA-B*18:01; experiment: as above; conditions: source organism: Monodelphis domestica
[13] = biological target: HLA-B*53:01; experiment: as above; conditions: source organism: Monodelphis domestica
[14] = biological target: HLA-B*08:01; experiment: as above; conditions: source organism: Monodelphis domestica
[15] = biological target: HLA-A*29:02; experiment: as above; conditions: source organism: Monodelphis domestica
[16] = biological target: HLA-B*51:01; experiment: as above; conditions: source organism: Monodelphis domestica
[17] = biological target: HLA-A*24:02; experiment: as above; conditions: source organism: Monodelphis domestica
[18] = biological target: HLA-B*35:01; experiment: as above; conditions: source organism: Monodelphis domestica
[19] = biological target: HLA-B*40:02; experiment: as above
[20] = biological target: HLA-A*11:01; experiment: as above; conditions: source organism: Monodelphis domestica
[21] = biological target: HLA-B*40:01; experiment: IEDB peptide-MHC binding, purified MHC/competitive/fluorescence; filed as Kd, often an IC50 or EC50 that approximates it; ≥ and ≤ were set here for values at or beyond the usual limits of such assays; conditions: source organism: Bacillus cereus G9241
[22] = biological target: HLA-A*25:01; experiment: as above; conditions: source organism: Giardia lamblia ATCC 50803
[23] = biological target: HLA-A*02:01; experiment: as above; conditions: source organism: Giardia lamblia ATCC 50803
[24] = biological target: HLA-B*27:03; experiment: as above; conditions: source organism: Giardia lamblia ATCC 50803
[25] = biological target: HLA-A*69:01; experiment: as above; conditions: source organism: Giardia lamblia ATCC 50803
[26] = biological target: HLA-B*46:01; experiment: as above; conditions: source organism: Giardia lamblia ATCC 50803
[27] = biological target: HLA-A*68:02; experiment: as above; conditions: source organism: Giardia lamblia ATCC 50803
[28] = biological target: HLA-A*26:01; experiment: as above; conditions: source organism: Giardia lamblia ATCC 50803
[29] = biological target: HLA-A*03:01; experiment: as above; conditions: source organism: Giardia lamblia ATCC 50803
[30] = biological target: HLA-A*02:03; experiment: as above; conditions: source organism: Giardia lamblia ATCC 50803
[31] = biological target: HLA-B*39:01; experiment: as above
[32] = biological target: HLA-A*02:16; experiment: as above; conditions: source organism: Giardia lamblia ATCC 50803
[33] = biological target: HLA-A*02:12; experiment: as above; conditions: source organism: Giardia lamblia ATCC 50803
[34] = biological target: HLA-A*29:02; experiment: as above; conditions: source organism: Giardia lamblia ATCC 50803
[35] = biological target: HLA-A*02:19; experiment: as above; conditions: source organism: Giardia lamblia ATCC 50803
[36] = biological target: HLA-A*02:06; experiment: IEDB peptide-MHC binding, purified MHC/direct/fluorescence; filed as Kd, often an IC50 or EC50 that approximates it; ≥ and ≤ were set here for values at or beyond the usual limits of such assays; conditions: source organism: Vibrio parahaemolyticus AQ3810
[37] = biological target: HLA-A*02:01; experiment: as above; conditions: source organism: Vibrio parahaemolyticus AQ3810
[38] = biological target: HLA-B*27:03; experiment: as above; conditions: source organism: Vibrio parahaemolyticus AQ3810
[39] = biological target: HLA-A*69:01; experiment: as above; conditions: source organism: Vibrio parahaemolyticus AQ3810
[40] = biological target: HLA-B*46:01; experiment: as above; conditions: source organism: Vibrio parahaemolyticus AQ3810
[41] = biological target: HLA-A*26:01; experiment: as above; conditions: source organism: Vibrio parahaemolyticus AQ3810
[42] = biological target: HLA-B*57:01; experiment: as above; conditions: source organism: Vibrio parahaemolyticus AQ3810
[43] = biological target: HLA-A*03:01; experiment: as above; conditions: source organism: Vibrio parahaemolyticus AQ3810
[44] = biological target: HLA-B*18:01; experiment: as above; conditions: source organism: Vibrio parahaemolyticus AQ3810
[45] = biological target: HLA-A*02:16; experiment: as above; conditions: source organism: Vibrio parahaemolyticus AQ3810
[46] = biological target: HLA-B*15:17; experiment: as above; conditions: source organism: Vibrio parahaemolyticus AQ3810
[47] = biological target: HLA-B*15:01; experiment: as above; conditions: source organism: Vibrio parahaemolyticus AQ3810
[48] = biological target: HLA-A*02:12; experiment: as above; conditions: source organism: Vibrio parahaemolyticus AQ3810
[49] = biological target: HLA-A*29:02; experiment: as above; conditions: source organism: Vibrio parahaemolyticus AQ3810
[50] = biological target: HLA-B*51:01; experiment: as above; conditions: source organism: Vibrio parahaemolyticus AQ3810
[51] = biological target: HLA-B*58:01; experiment: IEDB peptide-MHC binding, purified MHC/competitive/fluorescence; filed as Kd, often an IC50 or EC50 that approximates it; ≥ and ≤ were set here for values at or beyond the usual limits of such assays; conditions: source organism: Escherichia coli F11
[52] = biological target: HLA-A*02:05; experiment: IEDB peptide-MHC binding, purified MHC/competitive/radioactivity; filed as Kd, often an IC50 or EC50 that approximates it; ≥ and ≤ were set here for values at or beyond the usual limits of such assays; conditions: source organism: Homo sapiens
[53] = biological target: HLA-B*44:02; experiment: IEDB peptide-MHC binding, purified MHC/competitive/fluorescence; ≥ and ≤ were set here for values at or beyond the usual limits of such assays; conditions: source organism: Homo sapiens
[54] = biological target: HLA-B*27:05; experiment: IEDB peptide-MHC binding, purified MHC/competitive/fluorescence; filed as Kd, often an IC50 or EC50 that approximates it; ≥ and ≤ were set here for values at or beyond the usual limits of such assays; conditions: source organism: Shigella boydii CDC 3083-94

Sequence: FLLPILSQIYT
- IC50 [1]: ≥ 20 µM
- IC50 [2]: ≥ 20 µM
- IC50 [3]: 0.0053 µM
- IC50 [4]: ≥ 20 µM
- IC50 [5]: ≥ 20 µM
- IC50 [6]: ≥ 20 µM
- IC50 [7]: ≥ 20 µM
- IC50 [8]: ≥ 20 µM
- IC50 [9]: ≥ 20 µM
- IC50 [10]: ≥ 20 µM
- IC50 [11]: ≥ 20 µM
- IC50 [12]: ≥ 20 µM
- IC50 [13]: ≥ 20 µM
- IC50 [14]: ≥ 20 µM
- IC50 [15]: 0.206 µM
- IC50 [16]: ≥ 20 µM
- IC50 [17]: ≥ 20 µM
- IC50 [18]: 0.206 µM
- IC50 ([19]; source organism: Monodelphis domestica): ≥ 20 µM
- IC50 [20]: ≥ 20 µM

Sequence: GEIVLCHVL
- Kd [21]: 0.005 µM

Sequence: KVSWRWMVY
- Kd [22]: ≥ 20 µM
- Kd [23]: ≥ 20 µM
- Kd [24]: ≥ 20 µM
- Kd [25]: ≥ 20 µM
- Kd [26]: ≥ 20 µM
- Kd [27]: ≥ 20 µM
- Kd [28]: ≥ 20 µM
- Kd [29]: 0.0043 µM
- Kd [30]: ≥ 20 µM
- Kd ([31]; source organism: Giardia lamblia ATCC 50803): ≥ 20 µM
- Kd [32]: ≥ 20 µM
- Kd [33]: ≥ 20 µM
- Kd [34]: 0.148 µM
- Kd [35]: ≥ 20 µM

Sequence: MQGKDFNHL
- Kd [36]: 0.009 µM
- Kd [37]: ≥ 20 µM
- Kd [38]: ≥ 20 µM
- Kd [39]: ≥ 20 µM
- Kd [40]: ≥ 20 µM
- Kd [41]: ≥ 20 µM
- Kd [42]: ≥ 20 µM
- Kd [43]: ≥ 20 µM
- Kd [44]: ≥ 20 µM
- Kd [45]: ≥ 20 µM
- Kd [46]: ≥ 20 µM
- Kd [47]: ≥ 20 µM
- Kd [48]: 1.21 µM
- Kd [49]: ≥ 20 µM
- Kd [50]: ≥ 20 µM

Sequence: QHFGLIPQW
- Kd [51]: 0.143 µM

Sequence: RLFPGLAIKI
- Kd [52]: 0.09 µM

Sequence: SDFQVHFL
- IC50 [53]: ≥ 20 µM
- IC50 ([19]; source organism: Homo sapiens): 0.0124 µM

Sequence: WRLVYASAV
- Kd [54]: 0.0753 µM
- Kd ([31]; source organism: Shigella boydii CDC 3083-94): 0.0118 µM
